Test results reported in the nanobody polyreactivity screen of Harvey et al. (2022).

Test: yeast display, Sf9 membrane polyspecificity reagent, FACS + sequencing; frameworks hold sequencing errors
Outline: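 Polyreactivity labels are assigned by the sorting gate from which each nanobody was recovered. The gates were low and high (top ~1%), set on anti-HA fluorescence for expression and streptavidin fluorescence for reagent binding. Before sorting, galactose-induced (36–48 hours) yeast display cells were stained for 1 hour at 4 °C with 10% biotinylated, detergent-solubilized Sf9 membrane reagent.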

Sequence | polyreactivity (PSR sort gate)
QDQLVESGGCLVQAGGSLRLSCAASGGTFRVYAMGWYRQAPGKERELVAAITGRGGSTYYADSVKGRFTISRDNAKNTVYLQMNSLKPDDTAVDYCNKEPELVEYDYWGQGTQVTVSS | low polyreactivity
QVQLVESGGGLVQAGGSLRLSCAASGSTFRYYAMGWYRQAPGKERELVAAIDRSGGNTYYADSVKGRFTISRDNAKNTVYLQMYSLKPEDTAVYYCNTASWRAQYYYWGQGTQVTVSS | high polyreactivity
QVQHVQSGGGLVQAGGSLRLSCAASGSTFPGYAMGWYRQDPGKEREFVAAISTSGGRTYYADSVKGRFTISRDNAKNTVYVQMNSLKPEDTAVYFCNADRYSQYSHSRYDYWGQGTQVTVSS | high polyreactivity
QVQLVESGGGLVQAGGSLRLSCAASGSIFSGNAMGWYRQAPGKERELVASINRSGGSTYYADSVKGRFTISRDNAKNTVYLLMNSLKPEDTAVYYCAARRVWLAGYDSWGQGTQVTVSS | low polyreactivity
QVQLVESGGGLVQAGGSLRLSCAASGSIFHMNAMGWYRQAPGKERELDASISSDGSTYYADSVKGRFTISRDNAKNTVYLQMNSLKPEVTAVYYCNADSQWALKQLSFDYWGQGTQVTVSS | low polyreactivity
QVQLVESGGGLVQAGGSLRLSCAATGYTFYIYAMGWYRQARGKERELVASITSDGRTNYADSVKGRFTISRDNAKNTVYLQMNSLKPEDTAVYYCATVGKVHDRLVAMDYWGQGTQVTGSS | low polyreactivity
QVQLVESGGALVQAGGSLRLSCAASRITFTDNAMGWYRQAPGKERELVAAISSGASTYYADSVKGRFTISRDNAKNTVYLQMNSLKPEDSAVYYCATRQTYNYPWHYRYYYWGQGTQVTVSS | high polyreactivity
QVQLIESGGGLVQAGGSLRLSCAASGIIFRTYAMGWYRQAPGKERELVAAITSGGSTNYADSVKGRFTISRDNAKNTVYLQMNSLKPEDTAVYYCAARTYTSRYSYGYWGQGTQVTVSS | high polyreactivity
QVQLVESGGGLFQARGSLRLSCAASGSTFGFYARGWYRQATGKERELVAASSRGGSTNYADSVKGRFTISRDNAKNTVYLQLNSLKPEDTAGYYCAKAYHATSDYWGQGTQVTVSS | low polyreactivity
QVQLVESGGGLVQAGGSLRLSCAASGSIFEGNGMGWYRPAPGKERELVAAITFRSGSTYYADSVKGRFTISRDNAKNTVYLQMNSLKPEDTAVYYCAADEYYQVSAYDYWGQGTQVTVSS | low polyreactivity
QVQLVESGGGLVQAGGSHRLSCAASGRTFLTNAMGWYRQAPGKERELVAAIRWSGTSTYYADSVKGRFTISRDNAKNTVYLQMNSLKPEDTAVYYCAARKVYGSKYGYWGQGTQVTVSS | high polyreactivity
QVQLVESGGGLVQAGGSRRLSCAASGRTFYKYAMGWYRQAPGKERELVAAISGGGTTNYADSVKGRFTISRDNAKNTVYLQMNSLKPEDTAVYYCNAARTRWATGYDYWGQGTQVTVSS | low polyreactivity
QVQLVESGGGLVQAGGSLRLSCAASGFTFSRNAMGWYRQAPGKERELVAAITWSGGRTYYADSVKGRFTISRDNAKNTVYLQMNSLKPEDTAVYYCAARKYHLRSAYDYWGQGTQVTVSS | low polyreactivity
QVQLVESGGGLVQAGGSLRLSCASSGRIIINYDMGWYRQAPGKEIELVAAITWSTGSTYADSVKGRFTISRDNAKNTVYLQMNSLKPEDTAVYYCAAPWGQTDDRHQGGDYWGQGTQVTVSS | low polyreactivity
QVQLVESGGGLVQAGGSLRLSCAASGLIFGVNAMGWYRQAPGKERELVAVISRGGRTNYADSVKGRFTISRDNAKNTVYLQMNSLKPEDTAVYYCATYYTNKVPARYYWGQGTQVTVSS | high polyreactivity
QVQLVESGVGLVQAGGSLRLSCAASGSTLVSYAKGWYIQAPGKERELVASISSGDSTYADSVKGRFTISRDNAKNTVYLQMNSLKPEDTAVYYCNVGNEGSYGFPVTYEYWGQGTQVTVSS | low polyreactivity
QVQLVESGGGLVQAGGSLRLSCAASGSTFTPYTMGWYRQAPGKERELVATITGSDGSTYYADSVKGRFTISRDNAKNTVYLQMNSLKPEDTAVYYCYADETRWTWDPFSYICDDYWGQGTQVTVSS | low polyreactivity
QVQLVESGGGLVQAGGSLGLSCAASGSTFRSYAMGWYRQAPGKERELVAAISSAGTTYYADSVKGRFTISRDNAKNTVYLQMNSLKPEDTAVYYCAAKYSYYTYAGDGGLFSWSYGYWGQGTQVTVSS | low polyreactivity
QVQLVESGGGLVQAGGSLRLSCAASGRTFRSDNAMGWYRQAPGKERELVAAISQGGGTYYADSVKGRFTISRDNAKNTVYLQMNSLKPEDTAVSYCARDAYYADPSLWYYTYDYWGQCTQVTVSS | low polyreactivity
QVQLVESGGGLVQAGGSLRLSCAASGFIFGKYAMGWYRQAPGKEREVVAAITSGGSTYYADSVKGRFTISRDNAKNTVYLQMNSLKPEDTAVYYCAVPFTFWWSSYRYDYWGQGTQVTVSS | high polyreactivity
QVQLVESGGGLVQAGGSLRLSCAASGFIFARYAMGWYRQAPGKVRELVARITTGDSTYYADSVKGRFTISRDNAKNTVYLQMNSLKPEDTAVYYCAADDNVSVVGLYYWGQGTQVTVSS | low polyreactivity
QVQLVESGGGLVQAGGSLRLSCAASGSIFGYNAMGWYRQAPGKEREFVAAISWSGGRTYYADSVKGRFTISRDNAKNTVYLQMNSLKPEDTAVYYCAAPSRPAPRFDYWGQGTQVTVSS | low polyreactivity

Sequence | polyreactivity (PSR sort gate)
QVQLVESGGGLVHAGGPLRLSCAASGFTFGEYAMGWYRPAPGKERELVAAITWSVGSTYYADSVKGRFTISRDNAKNTVYLEMNSLKPEDTAVYYCAAVLNWSRYGYWGQGTQVTVSS | low polyreactivity
QVQLVESGGGLVQAGGSLRLSCAASGRNFRSYAMGWYRQAPGKERELVAAIRRGGSTNYADSVKGRFTISRDNAKNTVYLQMNSLNPEDTAVYYCAARGWSYRSVGYMDYWGQGTQVTVSS | high polyreactivity
QVQLVESGGGLVQAGGSLRLSCAASGFIFPDYGMGSYRQAPGKERELVAAIYRNGVSTYYADSVKGRFTISRDNAKNTVYLQMKSLKPEDTAVYYCAARFYRIRRVSKSGYYWGLGTQVTVSS | low polyreactivity
QVQLVESGGGLVQAGGRLRLSCAASGRIFYYYAMGWYRQAPGKERELVAAINRSGGSTYYADSVKGRFTISRDNAKNTVYLQMNSLKPEDTAVYSCASYDYWGQGTQVTVSS | high polyreactivity
QVQLVESGGGLVQAGGSLRLSCAASGSTLESYAMGWYRQAAGKERELVAAISKSGGRTYYADSVKGRFTISRDNAKNTVYLQMNSLKPEDTAVYYCAADSCTHLTYYWGQGTQVTVSS | high polyreactivity
QVQLVESGGGLVQAGCSLRLSCAASGRIFRKNTMGWYIQAPGKEWELVAAISFRGASTYYADSVKGRFTISRDNAKNTVYLQMNSLKPEDTAVYYCATVRAHASRLGYDYWGQGTQVTVSS | high polyreactivity
QVQLEESGGGLVQAGGSLRISCAASGRTIGPYAMGWYRQARGKERELVAAISGGGSTNYADSVKGRFTISRDNAKNSDYLQMNSLKPEDTAVYYCNTEYPISGEEEYWGQGTHVTVSS | low polyreactivity
QVQLVESGGGLVQAGGSHRLSCAASGRTYVYNAMGWYRQAPGKERELDAGITNGGSTNYADSVKGRFTISRDNAKNTVYLQMNSLKPEDTAVYYCAADSRVYPYYFGDFGYWGQGTQVTVSS | low polyreactivity
QVQLVESGGALVQAGGSLRLSCAASGIIFTPYAMGWYRQAPGKERQLLAAISWSGGRTYYADSVKGRFTISRDNAKNTVYLQMNSLKPEATAVYYCNARRYWWPHYYEYDYWGQGTHVTVSS | high polyreactivity
QVQLEESGGGLVQAGGSLRLSCAASGSIFYEYAMGLYRTAPGKERVFVAAISSRGGYTNYADSVKGRFTISRDNAKNTVYLQMNSLKPEDTAVYYWAGYGGLQSRYYYWGLGTQVTVSS | high polyreactivity
QVQLVESGGGLVQAGGSLRLSCAASGSTFGYYAMGWYRQAPGKERELVAAITWSGGSTSYADSVKGRFTISRENAKNSVYLQMNSLKPEDTAVYYCAAQYKKGRGAKRTYYGGWLEYCGQGTQVTVSS | low polyreactivity
QVQLVESGGGLVQAGGSLRLSCAASGITFTDYDMGWYRQAPGKERELVAAISNGGGSTYYADSVKGRFTISRDNAKNTVYLQMYSMKPEDTAVYYCAAERVPSWWVEWGVAQWDDYWGQGTQVTVSS | low polyreactivity
QVQLVESGGGLVQAGGSLRLSCADSGNIIWGNAIGWYRQAPGKERELVAAISRRSGSTYYADSVKGRFTISRDNAKNTVYLQMNSLKPEDTAVYYCNTAGRVGTYDYWGQGTQVTVSS | high polyreactivity
QVQLEESGGGLVQAGGSLRLSCAASGSIFGYNHMGWYRQAPGKERELVATITWGGGRTRYADSVKGRFTISRVNAKNTVYLQMNSLKPEDTAVYYCAADKRSYSYVRPPRNHEDYWGQGTQVTVSS | low polyreactivity
QVQLVESGGGLVQAGGSLRLSCAASGITFSGHAMGWYRQAPGKERELVAAITGSGGGTYYADSVMGRFTISRDNAKNTVYLQMNCLKPEDTAVYYCNADNYYYSGFDYWGQGTQVTVSS | low polyreactivity
QVQLQESGGGLVQAGGSLRLSCAASGIIFDNPNMGWYRQAPGKQRELVATINSGATTNYADSVKGRFTISRDNAKNTVYLLMNSLIPEDTAVYYCAVDLSPTYFYYWGQGTQVTVSS | high polyreactivity
QVQLVESGGGLVQAGGSLRLSCAASGSIFYTNAMGWYRQAPGKERELFASISRRGGSTYYADSVKGRFTISRDNAKNTVYLQMNSLKPEDTAVYYFATDGYTPYRWLWWLMDYWGQGTQVTVSS | high polyreactivity
QVQLVESGGGLVQAVGSLRLSCAASGLIFKKYAMGWYRQAPGKERELVATITSRGGSTYYADSVKGRFTISRDNAKNTVYLQMNSLKPEDTAVYYCAARFGFYTAYTYNYWGQGTQVTVSS | high polyreactivity
QVQLVESGGGLVQAGGSLRLSCAASGFIFGSYTMGWYRQAPGKERELVAAISWSSGCSTYYADSVKGRFTISRDNAKNTVYLQMNSLKPEDTAVYYCAARHRGAGRNDFYYWGQGTQVTVSS | high polyreactivity
QVHLVESGGGLVQAGGSLRLSCAASGRTFPYNAMGWYRQAPGKERELVATIDSSGTRTFYADSVKGRFTISRDNANNTVYLQMNSLKPEDTAVYYCAKGWYAYKLYGYDYWGQGTQVTVSS | low polyreactivity
QDQLVESGGGLVQAGVSLLLICAASGSTSSVYAMGWYRQAPGKERELVAAIRWSTGSTYYADSVKGLFTISRDNAKNTVYLHMNCLKPEETALYYCAAEVYTSVHIYSWYYYWGQGTKVTVSS | high polyreactivity
